Assay results as given in patent US7439329B2, “GEF-H1b: biomarkers, complexes assays and therapeutic uses thereof” (Sugen, Inc., priority 2002, dated 2008).

Tests used:
[1] = target: T1, GEF-H1S (Homo sapiens, UniProt Q92974, INS962GETLAETWTR); assay: Pull-down of GEF-H1 with PAK4 domains and biotinylated PAK4 peptides; assay type: binding; settings: biotinylated PAK4 peptides linked to streptavidin beads
T1 sequence (Q92974 with tags, fused parts or gaps): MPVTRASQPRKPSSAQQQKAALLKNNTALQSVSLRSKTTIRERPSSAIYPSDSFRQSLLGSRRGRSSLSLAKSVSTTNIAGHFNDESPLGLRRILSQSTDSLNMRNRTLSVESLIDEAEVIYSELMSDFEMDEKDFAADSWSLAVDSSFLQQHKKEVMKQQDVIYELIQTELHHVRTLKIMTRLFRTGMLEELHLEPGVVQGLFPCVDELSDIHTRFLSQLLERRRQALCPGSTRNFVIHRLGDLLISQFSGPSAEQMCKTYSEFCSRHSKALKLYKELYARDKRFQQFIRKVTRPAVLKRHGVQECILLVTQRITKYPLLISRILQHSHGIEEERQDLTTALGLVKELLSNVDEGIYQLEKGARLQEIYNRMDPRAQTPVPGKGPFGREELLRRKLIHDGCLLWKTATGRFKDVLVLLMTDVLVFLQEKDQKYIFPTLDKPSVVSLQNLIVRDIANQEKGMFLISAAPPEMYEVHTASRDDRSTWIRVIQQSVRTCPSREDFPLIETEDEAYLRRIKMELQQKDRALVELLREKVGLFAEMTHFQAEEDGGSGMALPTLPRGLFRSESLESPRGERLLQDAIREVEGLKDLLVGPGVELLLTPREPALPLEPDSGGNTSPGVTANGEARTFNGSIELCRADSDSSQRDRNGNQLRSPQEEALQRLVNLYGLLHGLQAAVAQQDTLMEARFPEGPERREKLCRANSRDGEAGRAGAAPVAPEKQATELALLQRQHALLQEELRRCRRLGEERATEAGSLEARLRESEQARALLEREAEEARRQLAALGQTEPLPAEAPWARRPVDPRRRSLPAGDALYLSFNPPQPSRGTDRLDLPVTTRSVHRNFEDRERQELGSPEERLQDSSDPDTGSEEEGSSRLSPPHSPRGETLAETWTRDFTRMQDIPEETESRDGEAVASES
Protocol: (§1) FIG. 1: (SEQ ID NOs 32-34 respectively in order of appearance) Direct binding of GEF-H1 to PAK4. Lysates were prepared from 293T cells over expressing (a) myc tagged PAK4 alleles or subdomains and incubated with GST, GST-GEF-H1 (787-921) and GST-Maguin-like bound to Glutathione beads (1,2,3,4 bead designation) or (b) GFP-GEF-H1 and incubated with PAK4 biotinylated peptides (291-355) and (276-324) linked to streptavidin beads. An equivalent amount of beads and excess lysates (500 ug) were used. Eluates of beads and total lysates were analysed by SDS-PAGE and immunoblotted with myc or GEF-H1 antiserum; (c) represents a PAK4 gene schematic outlining the regions of PAK4 used to identify the GEF-H1 interaction domain (GID). d, alignment of the GID defined by the minimal binding region of PAK4 with PAK5 and PAK6.
(§2) To confirm the in vitro interaction of GEF-H1S with PAK4, bacterially expressed GST-fusion proteins were generated with the identical sequences isolated by phage display, encoding either amino acids 763-921 of GEF-H1S or amino acids 385-555 from the Maguin-2-like protein. These fusion proteins were bound to glutathione beads and utilized in binding assays with 293T lysates expressing exogenous PAK4.
(§3) Biotinylated peptides derived from the N-terminal region of PAK4 sequence were used to further map the GEF-H1 binding site. […]

[2] = test system: GEF-H1S; assay: Co-transfection of GEF-H1S and PAK4 alleles, Western blot with phospho-specific GEF-H1 antibodies; assay type: cell-based, human
Protocol: To confirm that GEF-H1S phosphorylation by PAK4 occurs at these sites in vivo, co-transfection assays were performed and analyzed phosphorylation of GEF-H1 by use of a phospho-specific antibody directed against phospho-serine 810. This antibody is specific for GEF-H1 that is phosphorylated on Ser 810. […] Expression of the kinase-dead PAK4 is also able to inhibit endogenous PAK4 basal phosphorylation of GEF-H1S on Ser 810.
In this experiment GEF-H1S expression vector was pRSV/Rc and the PAK4 expression vector was pcDNA. Lysates were prepared from the transfected 293T cells and analyzed by Western Blot using the anti-1009 reagent. […] These phosphospecific antibodies can be used to detect PAK4 activity in tumors by virtue of its specific phosphorylation of GEF-H1.

[3] = target: T2, GEF-H1S (Homo sapiens, UniProt Q92974, INS962GETLAETWTR); assay: Pull-down of GEF-H1 with PAK4 domains and biotinylated PAK4 peptides; assay type: binding; settings: PAK4 domain expressed in 293T lysate; GST-GEF-H1S (aa763-921) on glutathione beads
T2 sequence (Q92974 with tags, fused parts or gaps): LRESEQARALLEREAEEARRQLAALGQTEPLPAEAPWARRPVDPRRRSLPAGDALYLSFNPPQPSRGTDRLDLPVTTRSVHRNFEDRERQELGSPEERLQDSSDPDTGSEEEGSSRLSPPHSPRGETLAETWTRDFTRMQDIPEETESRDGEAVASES
Protocol: as §1, §2, §3

[4] = co-expression with GEF-H1S in mammalian (293T) cells, anti-1009 Western blot, relative to basal phosphorylation

B1: amino acids 291-355: biotinylated PAK4 peptide covering a more C-terminal region (peptide, UniProt O96013 291-355, looked up, fragment)
chain: SPQREPQRVSHEQFRAALQLVVDPGDPRSYLDNFIKIGEGSTGIVCIATVRSSGKLVAVKKMDLR
modifications: biotin
notes: biotinylated PAK4 peptide covering a more C-terminal region
B1 was tested, and the “interaction with GEF-H1S” value [1] was “did not”.

B2: S474E: activated PAK4 mutant (protein)
chain: MFGKRKKRVEISAPSNFEHRVHTGFDQHEQKFTGLPRQWQSLIEESARRPKPLVDPACITSIQPGAPKTIVRGSKGAKDGALTLLLDEFENMSVTRSNSLRRDSPPPPARARQENGMPEEPATTARGGPGKAGSRGRFAGHSEAGGGSGDRRRAGPEKRPKSSREGSGGPQESSRDKRPLSGPDVGTPQPAGLASGAKLAAGRPFNTYPRADTDHPSRGAQGEPHDVAPNGPSAGGLAIPQSSSSSSRPPTRARGAPSPGVLGPHASEPQLAPPACTPAAPAVPGPPGPRSPQREPQRVSHEQFRAALQLVVDPGDPRSYLDNFIKIGEGSTGIVCIATVRSSGKLVAVKKMDLRKQQRRELLFNEVVIMRDYQHENVVEMYNSYLVGDELWVVMEFLEGGALTDIVTHTRMNEEQIAAVCLAVLQALSVLHAQGVIHRDIKSDSILLTHDGRVKLSDFGFCAQVSKEVPRRKELVGTPYWMAPELISRLPYGPEVDIWSLGIMVIEMVDGEPPYFNEPPLKAMKMIRDNLPPRLKNLHKVSPSLKGFLDRLLVRDPAQRATAAELLKHPFLAKAGPPASIVPLMRQNRTR
With B2 the “phosphorylation of GEF-H1S on Ser 810” value [2, 4] was “marked increase”, the “phosphorylation of GEF-H1S on Ser 810” value ([2]; co-expression with GEF-H1S in mammalian (293T) cells, anti-1009 Western blot, relative to basal phosphorylation, listed as activated PAK4) was “enhanced” and the “phosphorylation of GEF-H1S on Ser 67” value ([2]; co-transfection with GEF-H1S, phospho-specific antibodies against Ser 67) was “stimulated phosphorylation”.

B3: PAK4 kinase dead K350,351A: kinase inactive PAK4 mutant (protein, UniProt O96013 1-591, looked up, variant K350A K351A)
Serine/threonine-protein …: MFGKRKKRVEISAPSNFEHRVHTGFDQHEQKFTGLPRQWQSLIEESARRPKPLVDPACITSIQPGAPKTIVRGSKGAKDGALTLLLDEFENMSVTRSNSLRRDSPPPPARARQENGMPEEPATTARGGPGKAGSRGRFAGHSEAGGGSGDRRRAGPEKRPKSSREGSGGPQESSRDKRPLSGPDVGTPQPAGLASGAKLAAGRPFNTYPRADTDHPSRGAQGEPHDVAPNGPSAGGLAIPQSSSSSSRPPTRARGAPSPGVLGPHASEPQLAPPACTPAAPAVPGPPGPRSPQREPQRVSHEQFRAALQLVVDPGDPRSYLDNFIKIGEGSTGIVCIATVRSSGKLVAVAAMDLRKQQRRELLFNEVVIMRDYQHENVVEMYNSYLVGDELWVVMEFLEGGALTDIVTHTRMNEEQIAAVCLAVLQALSVLHAQGVIHRDIKSDSILLTHDGRVKLSDFGFCAQVSKEVPRRKSLVGTPYWMAPELISRLPYGPEVDIWSLGIMVIEMVDGEPPYFNEPPLKAMKMIRDNLPPRLKNLHKVSPSLKGFLDRLLVRDPAQRATAAELLKHPFLAKAGPPASIVPLMRQNRTR
B3 was tested, and the “phosphorylation of GEF-H1S on Ser 810” value [2, 4] was “marked decrease” and the “phosphorylation of GEF-H1S on Ser 810” value ([2]; co-expression with GEF-H1S in mammalian (293T) cells, anti-1009 Western blot, relative to basal phosphorylation, listed as kinase-dead PAK4) was “inhibit”.

B4: wild type PAK4 (1-591): wild type p-21-activated kinase 4 expressed from pcDNA (protein)
chain: MFGKRKKRVEISAPSNFEHRVHTGFDQHEQKFTGLPRQWQSLIEESARRPKPLVDPACITSIQPGAPKTIVRGSKGAKDGALTLLLDEFENMSVTRSNSLRRDSPPPPARARQENGMPEEPATTARGGPGKAGSRGRFAGHSEAGGGSGDRRRAGPEKRPKSSREGSGGPQESSRDKRPLSGPDVGTPQPAGLASGAKLAAGRPFNTYPRADTDHPSRGAQGEPHDVAPNGPSAGGLAIPQSSSSSSRPPTRARGAPSPGVLGPHASEPQLAPPACTPAAPAVPGPPGPRSPQREPQRVSHEQFRAALQLVVDPGDPRSYLDNFIKIGEGSTGIVCIATVRSSGKLVAVKKMDLRKQQRRELLFNEVVIMRDYQHENVVEMYNSYLVGDELWVVMEFLEGGALTDIVTHTRMNEEQIAAVCLAVLQALSVLHAQGVIHRDIKSDSILLTHDGRVKLSDFGFCAQVSKEVPRRKSLVGTPYWMAPELISRLPYGPEVDIWSLGIMVIEMVDGEPPYFNEPPLKAMKMIRDNLPPRLKNLHKVSPSLKGFLDRLLVRDPAQRATAAELLKHPFLAKAGPPASIVPLMRQNRTR
In the case of B4, the “phosphorylation of GEF-H1S on Ser 810” value ([2]; co-expressed with Cdc42) is reported as “enhanced” and the “phosphorylation of GEF-H1S on Ser 810” value [2, 4] is reported as “marked increase”.

B5: amino acids 1-309: amino-terminal regulatory domain of PAK4 alone (protein, UniProt O96013 1-309, looked up, fragment)
chain: MFGKRKKRVEISAPSNFEHRVHTGFDQHEQKFTGLPRQWQSLIEESARRPKPLVDPACITSIQPGAPKTIVRGSKGAKDGALTLLLDEFENMSVTRSNSLRRDSPPPPARARQENGMPEEPATTARGGPGKAGSRGRFAGHSEAGGGSGDRRRAGPEKRPKSSREGSGGPQESSRDKRPLSGPDVGTPQPAGLASGAKLAAGRPFNTYPRADTDHPSRGAQGEPHDVAPNGPSAGGLAIPQSSSSSSRPPTRARGAPSPGVLGPHASEPQLAPPACTPAAPAVPGPPGPRSPQREPQRVSHEQFRAALQ
B5 was tested, and the “interaction with GEF-H1S” value [3] was “did not stably interact”.
